Article PMC3633087

Target: p11-AnxA2 peptide cassette (UniProt P60903)
Assay: crystal structure

- stoichiometry N: 2
Substance: p11-AnxA2 peptide cassette (from UniProt P60903 1-97)
